Assay: soluble on expression in E. coli; label from the status in PepcDB or PDB records

Sequence | soluble on expression in E. coli
QIQLVQSGPELKKPGETVKISCKASGYTFTDYSMYWVKQAPGKGLKRMGWINTETGEPTYADDFKGRFALSLDTSASTAYLHISNLKNEDTATYFCARGLDSWGQGTSVTVSSAKTTPPSVYPLAPGCGDTTGSSVTLGCLVKGYFPESVTVTWNSGSLSSSVHTFPALLQSGLYTMSSSVTVPSSTWPSQTVTCSVAHPASSTTVDKKLEPS | soluble
QVKLLESGPELVKPGASVKMSCKASGYTFTSYVMHWVKQKPGQGLEWIGYINPYNDGTKYNEKFKGKATLTSDKSSSTAYMELSSLTSEDSAVYYCVRGGYRPYYAMDYWGQGTSVTVSSAKTTPPSVYPLAPGSAAQTNSMVTLGCLVKGYFPEPVTVTWNSGSLSSGVHTFPAVLQSDLYTLSSSVTVPSSTWPSETVTCNVAHPASSTKVDKKIVPRDCTSHHHHHH | soluble
MAEAIFSAIVGDVIGRVISLVVSNFNGDHSTEVKLQRICRMLIKIHSVVEEAKGRQITNHGTLEWLSELIDGAYQGRYLLDTIGCGEPDLDDKNRDEVDPKPFSLSKFNPAKRVRVAAFTVRNILSRHDIGVDEIDRVVESLQSMCGDLKEFMMLLQACQPIHRPLATNIFIEGQMFGRHVKKEMIINFLLHEDDLPRGKLGVLPILGDIGVGKTTLVQHACDDARVRSHFTTILLFNFSHTYKMEMCEPKPVLRPKHVIGDVGNSDDPLHELEQSFFNKRFLIVFEDVDIHKKNMLEELLKSLSCGKQGSKIIVTTSNKHVTTIGTVQPIKLKFLPCPEYWFFFKAHAFAGTDVQENPRLVAAGKSIAAKLNGSFFGAKIIGAILKENPDPKFWCTVLQRDIGGLSLLGDGLGYIADLVEILLPSRLSVKEVFVSKNSLSSETELARLQGLCLPCPSSAPLATHSSELSLAKATSYERVLLCKAVLPFYSLYYTAKCAVDSENCYSKFSVV | soluble
MATATMLKPLGDRVVVKRIEEEAKTKGGIVLPDTAKEKPQKGKVVAVGSGRTLDNGTKVPLEVKEGDTVVFAKYGGTEIEIDGEEYIILSERDLLAVI | soluble
NYNHPFTQLGNQVFPTTPIVSGVRGRVVEVPVQANQPLKTGDILFKIDPVPFEAEVARLEAKVKEASQGALGLESDLREAEAAVLKAQADRDKAQREFSRYQRGFDRGAFTEQDLDTRRQAYKAAEAMLDVAILQQEQAQIALDSEIGGENTQVAQLLAELRKAEFNLEQTIVRAPTDGYVTQLALR | soluble
MSLKQQVPLSTATVSMVHSVPELMVSSEQAEQLGREDQQRLHRNRKLVLMVDLDQTLIHTTEQHCQQMSNKGIFHFQLGRGEPMLHTRLRPHCKDFLEKIAKLYELHVFTFGSRLYAHTIAGFLDPEKKLFSHRILSRDECIDPFSKTGNLRNLFPCGDSMVCIIDDREDVWKFAPNLITVKKYVYFQGTGDMNAPPGSRESQTRKKVNHSRGTEEGHHHHHH | not soluble
MSLGRKQQYGTLASIAAKLGISRTTVSNAYNRPEQLSAELRQRILDTAEDMGYLGPDPVARSLRTRRAGAIGVLLTEDLTYAFEDMASVDFLAGVAQAAGDTQLTLIPASPASSVDHVSAQQLVNNAAVDGVVIYSVAKGDPHIDAIRARGLPAVIADQPAREEGMPFIAPNNRKAIAPAAQALIDAGHRKIGILSIRLDRANNDGEVTRERLENAQYQVQRDRVRGAMEVFIEAGIDPGTVPIMECWINNRQHNFEVAKELLETHPDLTAVLCTVDALAFGVLEYLKSVGKSAPADLSLTGFDGTHMALARDLTTVIQPNKLKGFKAGETLLKMIDKEYVEPEVELETSFHPGSTVAEGHHHHHH | soluble
MGSDKIHHHHHHMFDPETLRTFIAVAETGSFSKAAERLCKTTATISYRIKLLEENTGVALFFRTTRSVTLTAAGEHLLSQARDWLSWLESMPSELQQVNDGVERQVNIVINNLLYNPQAVAQLLAWLNERYPFTQFHISRQIYMGVWDSLLYEGFSLAIGVTGTEALANTFSLDPLGSVQWRFVMAADHPLANVEEPLTEAQLRRFPAVNIEDSARTLTKRVAWRLPGQKEIIVPDMETKIAAHLAGVGIGFLPKSLCQSMIDNQQLVSRVIPTMRPPSPLSLAWRKFGSGKAVEDIVTLFTQRRPEISGFLEIFGNPRS | not soluble

From the DeepSol protein solubility set
